The data set deals with the molecule itself. As to the kind of experiment: thioflavin T fluorescence.

B1: G175S PMEL CAF domain (residues 148-223) (domain or fragment)
chain: SFVYVWKTWGQYWQVLGGPVSGLSIGTSRAMLGTHTMEVTVYHRRGSRSYVPLAHSSSAFTITDQVPFSVSVSQLR
Regarding B1, the “polymerisation (ThT fluorescence) relative to the wild type” value is around 4 fold.

Values taken from article PMC12219675 (Nature Communications, 2025).
